# Source: patent US20040138113A1, “Use of corticotroph-derived glycoprotein hormone to treat inflammation and potentiate glucocorticoid action” (priority 2002, published 2004)
# T1: glycoprotein hormone beta 5 (GPHB5) (human, UniProt Q86YW7 25-130, one N-linked glycosylation (site not stated))
# T1 construct: Subunit co-expressed with GPHA2 in CHO cells; also called beta subunit of CGH
# T1 sequence: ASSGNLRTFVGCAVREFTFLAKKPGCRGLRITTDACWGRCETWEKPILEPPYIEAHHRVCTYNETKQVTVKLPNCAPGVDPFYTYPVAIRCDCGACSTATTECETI
# Assays:
# [1] = biological target: thyroid-stimulating hormone (TSH) receptor (human) (UniProt P16473); experiment: flow cytometry, human PBMC gated on CD4+ CD45RA+ naive CD4+ T cells; CGH-biotin 10 ug/ml then streptavidin-PE; background without CGH-biotin 3.5
# Chain of thyroid-stimulating hormone (TSH) receptor (human) (P16473 21-764): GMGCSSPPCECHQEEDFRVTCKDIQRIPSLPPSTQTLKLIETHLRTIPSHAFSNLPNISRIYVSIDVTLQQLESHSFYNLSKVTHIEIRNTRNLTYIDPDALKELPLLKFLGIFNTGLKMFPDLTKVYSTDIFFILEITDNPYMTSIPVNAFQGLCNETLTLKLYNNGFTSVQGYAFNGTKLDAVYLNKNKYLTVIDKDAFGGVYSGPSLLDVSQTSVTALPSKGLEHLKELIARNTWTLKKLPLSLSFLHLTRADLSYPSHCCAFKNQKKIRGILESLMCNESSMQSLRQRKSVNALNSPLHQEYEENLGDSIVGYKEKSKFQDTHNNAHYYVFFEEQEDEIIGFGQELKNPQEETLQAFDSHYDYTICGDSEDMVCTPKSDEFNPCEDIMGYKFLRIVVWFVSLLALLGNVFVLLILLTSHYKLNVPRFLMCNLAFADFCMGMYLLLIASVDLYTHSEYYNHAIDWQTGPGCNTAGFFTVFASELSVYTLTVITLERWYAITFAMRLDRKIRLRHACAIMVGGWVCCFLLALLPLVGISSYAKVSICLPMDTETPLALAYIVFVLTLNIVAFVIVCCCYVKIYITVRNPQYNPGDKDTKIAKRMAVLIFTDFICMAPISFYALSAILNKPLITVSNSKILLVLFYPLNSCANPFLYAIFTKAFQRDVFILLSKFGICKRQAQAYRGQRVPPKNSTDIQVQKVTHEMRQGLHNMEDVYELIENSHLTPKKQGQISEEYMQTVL
# [2] = biological target: thyroid-stimulating hormone (TSH) receptor (human) (UniProt P16473); experiment: flow cytometry, human PBMC gated on CD4+ CD45RA- memory CD4+ T cells; CGH-biotin 10 ug/ml then streptavidin-PE; background without CGH-biotin 3.4
# [3] = biological target: thyroid-stimulating hormone (TSH) receptor (human) (UniProt P16473); experiment: flow cytometry, human PBMC gated on CD3+ T cells; CGH-biotin 10 ug/ml then streptavidin-PE; background without CGH-biotin 4.3
# [4] = biological target: thyroid-stimulating hormone (TSH) receptor (human) (UniProt P16473); experiment: flow cytometry, human PBMC gated on CD14+ monocytes; CGH-biotin 10 ug/ml then streptavidin-PE; background without CGH-biotin 9.1
# [5] = biological target: thyroid-stimulating hormone (TSH) receptor (human) (UniProt P16473); experiment: flow cytometry, human PBMC gated on CD56+ NK cells; CGH-biotin 10 ug/ml then streptavidin-PE; background without CGH-biotin 3.6
# [6] = biological target: thyroid-stimulating hormone (TSH) receptor (human) (UniProt P16473); experiment: flow cytometry, human PBMC gated on CD19+ B cells; CGH-biotin 10 ug/ml then streptavidin-PE; background without CGH-biotin 3.8
# [7] = biological target: thyroid-stimulating hormone (TSH) receptor (human), P16473; experiment: cell-based or functional assay
# Chain of thyroid-stimulating hormone (TSH) receptor (human), P16473 (P16473 21-764): as above
# adrenal cortex = experiment: Adenoviral overexpression of CGH in mice, adrenal gland histopathology; assay type: in vivo, C57BL6 mice; settings: GPHA2- and GPHB5-expressing adenovirus by tail vein, day 20, all eight mice
# Source text: Summary: Mice were exposed to CGH through infection with adenovirus particles expressing GPHA2 and GPHB5, leading to overexpression and secretion of CGH from the liver of these animals. […] The hypertrophy was apparent in the inner cortical layers, the zona fasciculata and the zona reticularis. Similarly, mice were exposed to CGH through intraperitoneal injection of recombinant CGH protein alone, recombinant CGH protein along with the glucocorticoid Dexamethasone (Dex), Dex alone, or PBS alone daily for two weeks.
# Each group consisted of eight female C57BL6 mice. 7.5×10^11 particles each of GPHA2- and GPHB5-expressing adenovirus were administered by tail vein injection to the experimental group, while 1.5×10^11 particles of adenovirus expressing a parental vector alone were administered to the control group. Animals were sacrificed on day 20 following the injection and tissues were evaluated by a pathologist.
# NCI-H295R = experiment: CRE-luciferase reporter assay of cAMP-mediated gene induction in adrenal cortex cells; assay type: cell-based, human; settings: purified CGH heterodimer
# Source text: Summary: A human adrenal cortex cell line, NCI-H295R, was used to study signal transduction of CGH. NCI-H295R was transduced with recombinant adenovirus containing a reporter construct, a firefly luciferase gene under the control of cAMP response element (CRE) enhancer sequences. This assay system detects cAMP-mediated gene induction downstream of activation of Gs-coupled GPCR's (G-protein coupled receptors). […] Typically, CGH elicited a maximal response of 15-40-fold luciferase induction above control media.
# NCI-H295R cells were obtained from the ATCC (CRL-2128, Manassas, Va.) and cultured in growth medium as follows: 1:1 mixture of Dulbecco's modified Eagle's medium and Ham's F12 medium with L-glutamine (D-MEM/F-12; GIBCO, cat.# 11320-033) containing 25 mM HEPES buffer (GIBCO, Invitrogen, Carlsbad, Calif., cat.# 15630-080), 1 mM sodium pyruvate (GIBCO, cat.# 11360-070), 1% ITS+1 media supplement (Sigma St. Louis, Mo. cat# 12521) and 2.5% Nu-Serum I (BD Biosciences, Lexington, Ky. cat.#355100). Cells were cultured at 37° C. in a 5% CO2 humidified incubator. […]
# Promega's Luciferase Assay System (Promega, Madison, Wis., cat. # E1500) was used to process the treated cells. […] Luciferase activity was measured on a microplate luminometer (PerkinElmer Life Sciences, Inc., model LB 96V2R) following automated injection of luciferase assay substrate.
# thymus = test system: thymus; parameters: species or system C57B1/6 mice; settings: mouse, in vivo
# Source text: Since the receptor for CGH, TSH-R, is expressed by the adrenal glands, there was concern that the anti-inflammatory effects observed might be an indirect effect of increasing endogenous corticosteroid production in CGH-treated mice. One well-established side effect of increasing either exogenous or endogenous corticosteroid levels is substantial atrophy of the thymus, as the developing T cells are induced to undergo apoptosis. Therefore, the thymuses of the CGH and Dex-treated mice in the DTH experiments were analyzed. […] Thus, CGH seems to be mediating its anti-inflammatory effects in a manner distinct from that of exgenous glucocorticoids like Dex.
# [8] = test system: neutrophils infiltrating the ears; experiment: Neutrophil infiltration in ears of DTH mice, anti-Gr-1 immunohistochemistry and histomorphometry; assay type: in vivo, C57B1/6 mice; settings: anti-Gr-1 staining, DTH experiment #1
# Protocol: Ears from mice in DTH experiment #1 were analyzed by immunohistochemistry to assess which cell types were most affected by CGH treatment. Ears were fixed in Zinc/Tris buffer (2.3 mM calcium acetate/31.6 mM zinc acetate/36.7 mM zinc chloride in 0.1M Tris-HCL buffer, pH 7.4) for 24 hours at room temperature and stained with antibodies specific for CD4, CD8, CD11c, and Gr-1 (neutrophils). […] Ears were stained using a TechMate 500 autoimmunostainer (Biotech/Ventana) MIP protocol with some modifications. After drying the slides for 1 hour at 60° C., the sections were stained with a rat anti-mouse Gr-1 mAb (clone 7/4, Serotec, isotype rat IgG2a, used at 1.25 ug/ml final dilution), overnight at 4° C. This step was followed, after a wash, by biotinylated rabbit anti-rat IgG secondary antibody (Dako, used at 10 ug/ml in PBS with 2% normal rabbit serum and 2% nonfat dry milk) for 45 min. The sections were then washed and treated with HP Block (1.5% H2O2 in 50% methanol) 3 times, 7 min each, followed by 25 min in avidin-biotin complex, 3 times of 4 min each in DAB (Diaminobenzidine), then with Methyl green for 10 min.
# Histomorphometry was performed to obtain the average pixel density of neutrophils per unit length (1 mm) present in the ear samples. […]
# TSHR = biological target: T2, TSHR (Homo sapiens, UniProt P16473); experiment: Release of free fatty acids (FFA) from adipose cells; assay type: cell-based
# T2 construct: In adipose cells, sub-nanomolar levels of CGH stimulate release of free fatty acids (FFA); endogenous in cells
# T2 sequence (P16473 21-764, species assumed): as the sequence (P16473 21-764) above
# [9] = test system: LPS-induced mild endotoxemia mouse model; experiment: LPS-induced mild endotoxemia mouse model, serum cytokines by ELISA; assay type: in vivo, C57B1/6 mice; settings: for effect on serum IL-6 levels / effect on serum TNFα levels: 2 mg/kg of the monomer, data not shown
# Protocol: An in vivo experiment was designed to examine the effect of CGH in a mouse model of LPS-induced mild endotoxemia. This model mimics acute endotoxemia/sepsis by challenging mice with a low, non-lethal dose of bacterial endotoxin (lipopolysaccharide, LPS). Serum is collected at various timepoints (1-8 hours) after intraperitoneal LPS injection and analyzed for altered expression of a wide variety of pro- and anti-inflammatory cytokines and acute phase proteins that mediate the inflammatory response. The model provides a means to assess the potential anti-inflammatory effects of therapeutic candidates during a robust inflammatory response. To initially assess the model, we measured proinflammatory cytokines in a pilot experiment to collect reference data for the model.
# C57B1/6 mice (Charles River Laboratories; 5 mice/group) were treated i.p. with PBS, 0.2 mg/kg CGH in PBS, or 2 mg/kg CGH in PBS 1 hour prior to LPS challenge. The mice were then challenged with 25 ug of LPS i.p. and bled at 1 hour and 4 hours after LPS injection. Serum was analyzed for TNFα (1 hour) and IL-6 (4 hours) levels by ELISA.
# To determine if CGH would potentiate the effect of a sub-maximal dose of glucocorticoid, groups of 10 C57B1/6 mice each were treated i.p. with PBS, 0.15 or 1.5 mg/kg Dex, 2 mg/kg CGH, or a combination of CGH and low or high doses of Dex, 1 hour prior to injection of 25 ug LPS i.p. As shown in TABLE 3 (Expt #2), either 2 mg/kg CGH or 1.5 mg/kg Dex treatment alone (1 hour prior to LPS) caused a significant drop in serum TNFα levels at 1 hour, as observed in previous experiments. The effects of CGH administered in conjunction with Dex on inhibition of TNFα production were greater than either dose of Dex alone.
# [10] = biological target: T1, glycoprotein hormone beta 5 (GPHB5); experiment: co-expression in CHO cells (Example 5)
# [11] = 2 mg/kg CGH 1 hour prior to LPS, Expt #1
molecule,measurement,setting,value
CGH-biotin (biotinylated corticotroph-derived glycoprotein hormone) (from UniProt Q96T91 24-129; Q86YW7 25-130) (ligand),FL-2 MFI,[1],4.9 MFI
same,FL-2 MFI,[2],8.7 MFI
same,FL-2 MFI,[3],9.1 MFI
same,FL-2 MFI,[4],56.4 MFI
same,FL-2 MFI,[5],11.9 MFI
same,FL-2 MFI,[6],12.9 MFI
"Corticotroph-derived glycoprotein hormone (CGH), purified recombinant heterodimer, Q96T91 24-129; Q86YW7 25-130 (ligand, here or on the partner: one N-linked glycosylation on the GPHB5 subunit (site not stated); two N-linked glycosylations on the GPHA2 subunit (sites not given)) chain 1: QEAVIPGCHLHPFNVTVRSDRQGTCQGSHVAQACVGHCESSAFPSRYSVLVASGYRHNITSVSQCCTISGLKKVKVQLQCVGSRREELEIFTARACQCDMCRLSRY chain 2: ASSGNLRTFVGCAVREFTFLAKKPGCRGLRITTDACWGRCETWEKPILEPPYIEAHHRVCTYNETKQVTVKLPNCAPGVDPFYTYPVAIRCDCGACSTATTECETI",CRE-driven luciferase reporter induction (cAMP-mediated) in NCI-H295R human adrenal cortex cells,[7],15 to 40 fold
"CGH: heterodimeric protein hormone of alpha subunit GPHA2 (SEQ ID NO:3) and beta subunit GPHB5 (SEQ ID NO:6) (protein, listed as Homo sapiens) alpha: QEAVIPGCHLHPFNVTVRSDRQGTCQGSHVAQACVGHCESSAFPSRYSVLVASGYRHNITSVSQCCTISGLKKVKVQLQCVGSRREELEIFTARACQCDMCRLSRY beta: ASSGNLRTFVGCAVREFTFLAKKPGCRGLRITTDACWGRCETWEKPILEPPYIEAHHRVCTYNETKQVTVKLPNCAPGVDPFYTYPVAIRCDCGACSTATTECETI",histomorphological changes of the inner adrenal cortical cells,adrenal cortex,"profound hypertrophy and uniformly finely, foamy vacuolization"
same,dose-dependent induction of luciferase activity compared with 10 μM forskolin,NCI-H295R,equal to or higher than that induced by 10 μM forskolin
same,relative proportion of each thymocyte subset compared with the PBS-treated group,thymus,not significantly different
same,number of neutrophils infiltrating the ears compared to the PBS-treated controls,[8],clear reduction
same,levels that stimulate release of free fatty acids (FFA),TSHR,sub-nanomolar
same,"molar concentration stimulating release of FFA, lower compared to TSH",TSHR; compared to TSH,10 fold
same,increase of serum IL-6 levels at the 4 hour time point,[9]; [11],about 70%
same,reduction of the TNFα induction at the 1 hour time point,[9]; [11],about 60%
"zsig51: alpha subunit of CGH, glycoprotein hormone alpha2, previously called Zsig51; tested as monomer (protein) QEAVIPGCHLHPFNVTVRSDRQGTCQGSHVAQACVGHCESSAFPSRYSVLVASGYRHNITSVSQCCTISGLKKVKVQLQCVGSRREELEIFTARACQCDMCRLSRY",effect on serum IL-6 levels,[9],neither of these monomers had any effect
same,effect on serum TNFα levels,[9],neither of these monomers had any effect
"zlut1: monomer of CGH tested alone; not defined further, presumably the GPHB5 beta subunit (protein, UniProt Q86YW7 25-130, looked up) Glycoprotein hormone beta-5: ASSGNLRTFVGCAVREFTFLAKKPGCRGLRITTDACWGRCETWEKPILEPPYIEAHHRVCTYNETKQVTVKLPNCAPGVDPFYTYPVAIRCDCGACSTATTECETI",effect on serum IL-6 levels,[9],neither of these monomers had any effect
same,effect on serum TNFα levels,[9],neither of these monomers had any effect
"glycoprotein hormone alpha2 (GPHA2) (ligand, two N-linked glycosylations (sites not given), Subunit co-expressed with GPHB5 in CHO cells; also called Zsig51; zsig51) QEAVIPGCHLHPFNVTVRSDRQGTCQGSHVAQACVGHCESSAFPSRYSVLVASGYRHNITSVSQCCTISGLKKVKVQLQCVGSRREELEIFTARACQCDMCRLSRY",binding result,[10],binds
